Where a chain is given by its changes, count along the chain named. Blank lines part the entries; values can stand above or below the binder they belong to.
Assays:
PTPRF expressed on cells = target: T1, PTPRF expressed on cells (human, UniProt P10586 30-1907); assay: cell surface interaction assay: streptavidin-tetramerized biotinylated ECD on transfected cells, immunofluorescence
T1 construct: whole, on cells; also called receptor-type tyrosine-protein phosphatase F

[1] = target: T2, PTPRD R232C R233C variant extracellular domain (human, UniProt P23468 21-1265); assay: extracellular interaction screen: pentameric PTPRD variant ECD on ECD-Fc prey (FIG. 5L)
T2 construct: extracellular domain; also called R232C/R233C double mutant; IG2 mutant
T2 sequence (looked up): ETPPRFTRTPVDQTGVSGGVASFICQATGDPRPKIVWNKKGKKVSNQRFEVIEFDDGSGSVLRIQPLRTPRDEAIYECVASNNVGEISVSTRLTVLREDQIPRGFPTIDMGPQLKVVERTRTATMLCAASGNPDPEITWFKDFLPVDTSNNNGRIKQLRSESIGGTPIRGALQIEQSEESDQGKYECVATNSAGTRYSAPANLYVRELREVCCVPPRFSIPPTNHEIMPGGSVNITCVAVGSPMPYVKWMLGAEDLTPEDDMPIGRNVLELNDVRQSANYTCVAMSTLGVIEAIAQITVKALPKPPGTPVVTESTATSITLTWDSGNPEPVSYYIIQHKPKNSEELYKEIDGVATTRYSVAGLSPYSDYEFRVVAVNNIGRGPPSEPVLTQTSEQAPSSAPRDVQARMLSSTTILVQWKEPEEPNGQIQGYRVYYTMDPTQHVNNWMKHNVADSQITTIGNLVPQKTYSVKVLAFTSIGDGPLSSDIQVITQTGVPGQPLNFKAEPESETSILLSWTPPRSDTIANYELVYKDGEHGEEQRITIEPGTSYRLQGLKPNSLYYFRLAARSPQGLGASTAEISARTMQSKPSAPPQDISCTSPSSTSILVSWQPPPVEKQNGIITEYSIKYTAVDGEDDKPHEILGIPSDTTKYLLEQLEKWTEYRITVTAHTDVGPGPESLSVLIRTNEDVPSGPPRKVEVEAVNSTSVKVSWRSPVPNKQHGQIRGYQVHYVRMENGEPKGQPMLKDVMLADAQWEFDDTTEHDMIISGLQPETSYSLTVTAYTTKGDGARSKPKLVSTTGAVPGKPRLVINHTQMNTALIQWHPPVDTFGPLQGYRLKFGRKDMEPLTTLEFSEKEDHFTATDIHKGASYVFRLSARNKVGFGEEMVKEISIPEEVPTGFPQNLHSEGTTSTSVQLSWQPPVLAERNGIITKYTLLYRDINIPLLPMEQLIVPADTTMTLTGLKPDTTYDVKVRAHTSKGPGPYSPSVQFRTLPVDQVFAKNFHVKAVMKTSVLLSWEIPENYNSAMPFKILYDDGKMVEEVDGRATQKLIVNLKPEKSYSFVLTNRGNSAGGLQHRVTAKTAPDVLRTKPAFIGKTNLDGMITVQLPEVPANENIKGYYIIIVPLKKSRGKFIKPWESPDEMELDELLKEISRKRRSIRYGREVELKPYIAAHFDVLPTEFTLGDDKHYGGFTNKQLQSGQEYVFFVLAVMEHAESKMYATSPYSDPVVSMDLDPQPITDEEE

[2] = target: T3, PTPRD E406K variant extracellular domain (human, UniProt P23468 21-1265); assay: as above
T3 construct: extracellular domain; also called FN1 mutant
T3 sequence (looked up): T2 sequence (looked up) with C212R, C213R, E386K

T1 sequence (P10586 30-1907): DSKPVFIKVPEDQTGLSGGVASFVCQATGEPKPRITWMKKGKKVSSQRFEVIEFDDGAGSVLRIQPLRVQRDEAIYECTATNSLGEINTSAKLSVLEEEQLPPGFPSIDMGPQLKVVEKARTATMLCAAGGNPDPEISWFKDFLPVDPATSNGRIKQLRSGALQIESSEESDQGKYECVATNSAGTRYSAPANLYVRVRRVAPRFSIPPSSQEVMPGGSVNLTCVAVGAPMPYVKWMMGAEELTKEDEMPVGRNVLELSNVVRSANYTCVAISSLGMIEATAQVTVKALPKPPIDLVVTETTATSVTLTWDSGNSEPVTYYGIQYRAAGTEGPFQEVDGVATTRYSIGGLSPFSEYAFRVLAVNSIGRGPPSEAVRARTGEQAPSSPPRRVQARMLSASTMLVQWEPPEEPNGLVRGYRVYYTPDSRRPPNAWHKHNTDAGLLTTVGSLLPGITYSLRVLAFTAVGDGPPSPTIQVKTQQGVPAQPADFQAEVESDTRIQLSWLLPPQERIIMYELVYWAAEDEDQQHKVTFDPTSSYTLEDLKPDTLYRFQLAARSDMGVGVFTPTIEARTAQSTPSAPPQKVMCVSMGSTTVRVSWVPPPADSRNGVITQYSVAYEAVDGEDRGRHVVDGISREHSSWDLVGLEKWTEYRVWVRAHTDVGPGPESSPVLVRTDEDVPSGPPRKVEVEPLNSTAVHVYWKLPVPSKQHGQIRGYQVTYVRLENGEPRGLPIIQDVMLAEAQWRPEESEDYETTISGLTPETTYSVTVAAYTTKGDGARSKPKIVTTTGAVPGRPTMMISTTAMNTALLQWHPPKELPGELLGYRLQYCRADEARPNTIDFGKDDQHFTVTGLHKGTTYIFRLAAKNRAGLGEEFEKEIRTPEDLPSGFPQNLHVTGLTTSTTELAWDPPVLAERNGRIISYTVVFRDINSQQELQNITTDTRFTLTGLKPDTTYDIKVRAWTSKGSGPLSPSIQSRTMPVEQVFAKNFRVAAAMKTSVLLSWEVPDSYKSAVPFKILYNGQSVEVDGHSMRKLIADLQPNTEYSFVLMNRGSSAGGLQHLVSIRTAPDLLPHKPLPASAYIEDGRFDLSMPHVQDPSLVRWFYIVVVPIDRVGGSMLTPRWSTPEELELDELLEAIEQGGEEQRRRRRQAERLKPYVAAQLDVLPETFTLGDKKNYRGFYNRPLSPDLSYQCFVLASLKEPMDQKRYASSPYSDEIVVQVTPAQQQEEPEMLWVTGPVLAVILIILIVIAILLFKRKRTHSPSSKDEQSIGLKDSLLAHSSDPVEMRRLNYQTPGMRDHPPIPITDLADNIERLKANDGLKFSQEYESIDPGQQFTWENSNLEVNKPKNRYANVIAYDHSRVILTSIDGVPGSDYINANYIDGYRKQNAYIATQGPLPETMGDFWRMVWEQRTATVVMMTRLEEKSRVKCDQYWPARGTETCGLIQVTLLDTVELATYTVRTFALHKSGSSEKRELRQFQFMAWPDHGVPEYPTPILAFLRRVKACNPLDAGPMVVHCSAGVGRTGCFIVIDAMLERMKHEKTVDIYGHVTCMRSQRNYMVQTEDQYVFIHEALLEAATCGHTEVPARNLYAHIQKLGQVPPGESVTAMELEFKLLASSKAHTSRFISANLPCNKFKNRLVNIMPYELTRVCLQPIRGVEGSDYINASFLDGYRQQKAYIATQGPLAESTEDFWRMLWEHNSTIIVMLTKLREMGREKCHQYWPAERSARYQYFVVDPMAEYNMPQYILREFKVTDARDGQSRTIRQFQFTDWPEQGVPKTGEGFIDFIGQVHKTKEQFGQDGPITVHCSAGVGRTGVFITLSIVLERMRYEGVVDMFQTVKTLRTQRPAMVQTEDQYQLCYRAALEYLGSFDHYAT

binding result (PTPRF expressed on cells): binds
B1: LRFN5 extracellular domain (receptor, human, UniProt Q96NI6 18-529, looked up)
chain: QICPKRCVCQILSPNLATLCAKKGLLFVPPNIDRRTVELRLADNFVTNIKRKDFANMTSLVDLTLSRNTISFITPHAFADLRNLRALHLNSNRLTKITNDMFSGLSNLHHLILNNNQLTLISSTAFDDVFALEELDLSYNNLETIPWDAVEKMVSLHTLSLDHNMIDNIPKGTFSHLHKMTRLDVTSNKLQKLPPDPLFQRAQVLATSGIISPSTFALSFGGNPLHCNCELLWLRRLSREDDLETCASPPLLTGRYFWSIPEEEFLCEPPLITRHTHEMRVLEGQRATLRCKARGDPEPAIHWISPEGKLISNATRSLVYDNGTLDILITTVKDTGAFTCIASNPAGEATQIVDLHIIKLPHLLNSTNHIHEPDPGSSDISTSTKSGSNTSSSNGDTKLSQDKIVVAEATSSTALLKFNFQRNIPGIRMFQIQYNGTYDDTLVYRMIPPTSKTFLVNNLAAGTMYDLCVLAIYDDGITSLTATRVVGCIQFTTEQDYVRCHFMQSQFLGGTM
notes: extracellular domain; Streptavidin tetramer in cell assay; ECD-Fc prey in the variant screen; also called LFRN5

binding result [1]: no binding
binding result [2]: no binding
B2: LRRC4B extracellular domain (receptor, human, UniProt Q9NT99 36-576, looked up)
chain: AGGGGVAVTSAAGGGSPPATSCPVACSCSNQASRVICTRRDLAEVPASIPVNTRYLNLQENGIQVIRTDTFKHLRHLEILQLSKNLVRKIEVGAFNGLPSLNTLELFDNRLTTVPTQAFEYLSKLRELWLRNNPIESIPSYAFNRVPSLRRLDLGELKRLEYISEAAFEGLVNLRYLNLGMCNLKDIPNLTALVRLEELELSGNRLDLIRPGSFQGLTSLRKLWLMHAQVATIERNAFDDLKSLEELNLSHNNLMSLPHDLFTPLHRLERVHLNHNPWHCNCDVLWLSWWLKETVPSNTTCCARCHAPAGLKGRYIGELDQSHFTCYAPVIVEPPTDLNVTEGMAAELKCRTGTSMTSVNWLTPNGTLMTHGSYRVRISVLHDGTLNFTNVTVQDTGQYTCMVTNSAGNTTASATLNVSAVDPVAAGGTGSGGGGPGGSGGVGGGSGGYTYFTTVTVETLETQPGEEALQPRGTEKEPPGPTTDGVWGGGRPGDAAGPASSSTTAPAPRSSRPTEKAFTVPITDVTENALKDLDDVMKTTK
notes: extracellular domain; ECD-Fc prey; also called NGL-3; netrin-G ligand-3
